Test results as given in the nanobody polyreactivity screen of Harvey et al. (2022).

Assay: yeast display, Sf9 membrane polyspecificity reagent, FACS + sequencing; frameworks hold sequencing errors
Outline: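 Nanobodies came from a synthetic yeast display library in Saccharomyces cerevisiae BJ5465, induced with galactose for 36–48 hours and stained for 1 hour at 4 °C with 10% biotinylated, detergent-solubilized Sf9 membrane reagent. Cells were enriched on streptavidin microbeads and then FACS-sorted, with low and high (top ~1%) gates set on anti-HA fluorescence for expression and streptavidin fluorescence for reagent binding. Each polyreactivity label reflects the gate a clone came from. Genes were amplified by colony PCR, sequenced by MiSeq 2 × 250 and filtered by CDR length.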

Sequence	polyreactivity (PSR sort gate)
QVQLVESGGGLVQAGGSLRLSCAASGNTFVFYAMGWYRQAPGKERELVAAIDTGGTTNYADSVKGRFTISRDNAKNTVYLQMNSLKPEDTAVYYCAKRRLYWSGQGWVRTYGYWGQGTQVTVSS	high polyreactivity
QVQLVESGGGLVQAGGSLRLSCAASGNTFVFYTMGWSRQAPGKERELVAAITSSGVRTSYADSVKGRFSISRDNAKNTVYLQMNSLKPEDTAVYYCAASLRASPSFGYWGQGTQVTVSS	high polyreactivity
QVQLVESGGGLVQAGGSLRLSCAASGNTFVGYTMGWYRHAPGKERELVAAISWNGGTTYYADSVKGRFTISRDNAKNTVYLQMNSLKPEDTAVYYCNTRWYTRRFDYWGQGTQVTVSS	high polyreactivity
QVQLVESGGGLVQAGGSLRLSCAASGNTFVSNAMGWYRQAPGKERELVAAIDSGGSTNYADSVKGRFTISRDNAKNTVYLQMNRLKPEDTAVYYCNRTSVYYYYWGQGTQVTVSS	low polyreactivity
QVQLVESGGGLVQAGGSLRLSCAASGNTFWDNAMGWYRQAPGKERELVAAIRWSTASTHYADSVKGRFTISRDNAKNTVYFPMNSLKPEDTAVYYCAATDYYYYRDKYYGYDNWGQGTQVTVSS	low polyreactivity
QVQLVESGGGLVQAGGSLRLSCAASGNTFYANTMGWYRQARTERELVAAITSGTYADSVKGRFTISRDNAKNTVYLQMNSLKPEDTAVYYCAREESLYVTDPGPSKLDYWGQGTQVTVSS	low polyreactivity
QVQLVESGGGLVQAGGSLRLSCAASGNTFYGYAMGWYRQAPGKDRELVASITLSGDSTYYADSVKGRFTISRDNAKNTVYLQMNSLKQEDTAVYYCAGVYTYPLGYYHYTYDYWGQGTQVTVSS	low polyreactivity
QVQLVESGGGLVQAGGSLRLSCAASGNTFYGYAMGWYRQAPGKERVLVATIDSGGSTNYADSVKGRFTISRDNAKNTVYFQMNSLKPEDTAVYYCAADGVWYYNDMDYWGQGTQVTVSS	low polyreactivity
QVQLVESGGGLVQAGGSLRLSCAASGNTFYGYVMGWYRQAPGKERELVAAISWSGGRTYYADSVKGRFTISRDNAKNTVYLQMNSLKPEDTAVYYCAAVLLYYIYDYWGQGTQVTVSS	low polyreactivity
QVQLVESGGGLVQAGGSLRLSCAASGNTFYPNAMGWYRKAPGKERELVAAISSSGGSTYYADSVKGRFTISRDNAKNTVYLQMNSLKPEDTAVYYRAAEFDYPWSGEYYYWGQGTQVTVSS	high polyreactivity
QVQLVESGGGLVQAGGSLRLSCAASGNTFYWNAMGWYRQAPGKERELVAAITSSGGSTYYADSVKGRITISRDNAKNTVYLQMNSLKPEDTAVYYCNKDIERYVRIYDSWGQGTQVTVSS	low polyreactivity
QVQLVESGGGLVQAGGSLRLSCAASGNTFYYYAMGWYRQAPGKERELVAAIRRSGGTTYYADSVKGRFTISRDNAKNTVYLQMNSLKPEDTAVYYCAARVYRSYANVEGNYWGQGTQVTVSS	high polyreactivity
QVQLVESGGGLVQAGGSLRLSCAASGNTFYYYCMGWYRQAPGKERELVAAISSSGTSTYYADSVKGRFTISRDNAKNTVYLQMNSLKPEDTAVYYCARRTDRRTGPMYSWGQGTQVTVSS	high polyreactivity
QVQLVESGGGLVQAGGSLRLSCAASGNTIDSYAMGWYRQAPGKERELVAAISTSGGSTYYADSVKGRFTISRDNAKNTVYLQMNSLKPEDTAVYYCNATWTITYDYWGQGTQVTVSS	low polyreactivity
QVQLVESGGGLVQAGGSLRLSCAASGNTIIRYPMGWYRQAPGKERELVAAISYSGGRTYYADSVKGRFTISRDNAKNTVYLQMNSLKPEDTAVYYCNAASRYGGDYWGQGTQVTVSS	high polyreactivity
QVQLVESGGGLVQAGGSLRLSCAASGNTLDYYAMGWYRQAPGKEREVVEGIDDRTSTNYADSVKGRFTISRDNAKYTVYLQMNSLKPEDTAVYYCNADDGTVNYTSYYSPAVTYDSWGQGTQVTVSS	low polyreactivity
QVQLVESGGGLVQAGGSLRLSCAASGNTLGYYAMGWYRQAAGKARELVATICDDGTTYYADSVKGRFTISRDNAMNTVYLQMNSLSPEETAVYYCASVGSAQYSMDYWGDGTQVTVSS	low polyreactivity
QVQLVESGGGLVQAGGSLRLSCAASGNTLRYNVMGWYRQAPGKERELVAAISGGGSTSYTDSVKGRFTISRDNAKNTVYLQMNSLKPEDTAVYYCAKRSFVGGRGRDSDYWGQGTQVTVSS	low polyreactivity
QVQLVESGGGLVQAGGSLRLSCAASGNTVDGNAMGWYRPAPGKERELVAAINYSGASTYYADSVKGRFTISRDNAKNTVYLQINSLKPEDTAVYYCAADDYTASDRYWHDYWGQGTQVTVSS	low polyreactivity
QVQLVESGGGLVQAGGSLRLSCAASGNTYLYYGMGWYRQSPGKERDLVAAITQSGGTTYYADSVKGRFTISRDNAKNTVYLQLNSLKQEDTAVYYCAATRYYYYWYVYDDRGDYWGQGTQVTVSS	low polyreactivity
QVQLVESGGGLVQAGGSLRLSCAASGPIFTSNAMGWYRQAPGKERELVAAISRRGTRTYYADSVKGRFTISRDNAKNTVYLQMNSLKPEDTAVYYCAAGWTTRYFGGVDYWGQGTQVTVSS	high polyreactivity
QVQLVESGGGLVQAGGSLRLSCAASGPIFVYYARGWYREAPGKEREFVAAISASGGSTYYADSVKGRFTISRDTAKNTVYLQMNSLKPEDPAVYYCAADRLRNRPRGLREYYWGQGTQVTVSS	low polyreactivity

Sequence	polyreactivity (PSR sort gate)
QVQLVESGGGLVQAGGSLRLSCAASGPILGQYAMGGYRQAPGKERELVAAITYSGGRTYYADSVKGRFTISRDIAKNTVYLQMNSLKPEDTAVYYCAARGRASVERRGGYYYWGQGTQVTVSS	high polyreactivity
QVQLVESGGGLVQAGGSLRLSCAASGPTFAKNTMGWYRQAPGKERELVAAISWRGGRTYYADSVKGRFTISRDNAKNTVYLQMNSLKPEDTAVYYCAAASTIHRHGMDYWGQGTQVTVSS	high polyreactivity
QVQLVESGGGLVQAGGSLRLSCAASGPTFGGYTMGWYRQAPGKERELVAAITWSGGRTYYADSVKGRFTISRDNAKNTVYLQMNSLKPEDTAVYFCATSRSRERPLHNGPYYYWGLGTQVTVSS	high polyreactivity
QVQLVESGGGLVQAGGSLRLSCAASGPTFHGYDMGWNRQAPGKERELVARINWSDGRTYYADSVKGRFTISRDNAKNTVYLQMISLKPEDTAVYYCAADKTGSYAPAWYYYWGQGTQVTVSS	low polyreactivity
QVQLVESGGGLVQAGGSLRLSCAASGPTFRANAMGWYRQAPGKEREMVAAISQRGGNTYYADSVKGRFTISRDKAKNTVYLQMNSLKPEDTAVYYCSADITTYRRGRYEYEYWGQGTQVTVSS	high polyreactivity
QVQLVESGGGLVQAGGSLRLSCAASGPTFTYNAMGWYRQAPGKERELVATINSVDSTYADSVKGRFTISRDNAKNTVYLQMNSMKPEDTAVYYCNAGFPLSLWLGDYWGQGTQVTVSS	low polyreactivity
QVQLVESGGGLVQAGGSLRLSCAASGPTFYLYDTMGWYRQAPGKERELVAAISWDDGDTYYADSVKGRFTISRDNAKTTVYLQMNSLKPEDTAVYYCAAEYLSGAHGYWGQGTHVTVSS	low polyreactivity
QVQLVESGGGLVQAGGSLRLSCAASGPTFYYYAMGWYRQAPGKERELVAAITWSGGSTYYADSVKGRFTISRDNAKNTVYLQMNSLKPEDTAVYYCAADVTYSRYEYWGQGTQVTVSS	low polyreactivity
QVQLVESGGGLVQAGGSLRLSCAASGQTFDWYAMGWYRQAPGKERELVAAITSVGSTYYADSVKGRFTISRDNAKNSVYLQMNSLKPEDTAVYYCAVEGVIWSFWPYEYWGQGTQVTVSS	high polyreactivity
QVQLVESGGGLVQAGGSLRLSCAASGQTFYYYAMGWYRQAPGKERELVAAINSSGGITFYADSVKGRFTISRDNAKNTVYLQMNSLKPEDTAVYYCAAGGRSKRYVYWGQGTQVTVSS	low polyreactivity
QVQLVESGGGLVQAGGSLRLSCAASGRICTRYMGWYRQAPGKERELVATINWSGGSTYYADSVKGRFTISRDNAKNTVYLQMNSLKPEDTAVYYGNARNVDFYYVQYNGAKIFDYWGQGTQVTVSS	low polyreactivity
QVQLVESGGGLVQAGGSLRLSCAASGRICVINAMGWYRQAPGKERELVATIDRGGSTNYADSVKGRFSISRDNAKNTVYLQMNSLKPEDTAVYYCAAGVVGKRSRTGYYWGQGTQVTVSS	low polyreactivity
QVQLVESGGGLVQAGGSLRLSCAASGRIFAANVMGWYRQAPWKERELVAAISWNGGSTYYADSVKGRFTISRDNAKNTVYLQMNSLKPEDTAVYYCAVRGSYRGWYDYWGQGTQVTVSS	high polyreactivity
QVQLVESGGGLVQAGGSLRLSCAASGRIFADNAMGWYRQAPGKERELVADITYSGGSTYYADSVKGRFTISRDSAKNTVYLQMNSLKPEDTAVYYCAKQGVDYWGQGTQVTVSS	low polyreactivity
QVQLVESGGGLVQAGGSLRLSCAASGRIFADYAMGWYRQAPGKERELVAAISWRGGSRYYADSVKGRFTSSRDNAKNTVYLQMNSLKPEDTAVYYCNKASPADYDYWGQGTQVTVSS	low polyreactivity
QVQLVESGGGLVQAGGSLRLSCAASGRIFAFYAMGWYRQAPGKEREFVAAITYSGGNTNYADSVKGRFTISRDNAKNTVYLQMNSLKPEDTAVYYCAAALVYGVYYQEDYWGQGTQVTVSS	low polyreactivity
QVQLVESGGGLVQAGGSLRLSCAASGRIFAGYAMGWYRQAPGKERELVASIRSSGSTYYADSVKGRFTISRDNAKNTVYLQMNSLKPEDTAVYYCNKYVPYRHLWDYGYWGQGTQVTVSS	high polyreactivity
QVQLVESGGGLVQAGGSLRLSCAASGRIFAGYGMGWYRQAPGKERELVAAISSGGSTYYADSVKGRFTISRDNAKNTVYLQMTSLKPEDTAVYDCATDGQSVPDDYYQNVDYDYWGQGTQVAVSS	low polyreactivity
QVQLVESGGGLVQAGGSLRLSCAASGRIFAGYTMGWYRQAPGKERELVAAISWSGGRTYYADSVKGRFTISRDNAKYTVYLQMNSLKPEDTAVYYCNKVGWYHNYYYWGQGTQVTVSS	high polyreactivity
QVQLVESGGGLVQAGGSLRLSCAASGRIFAGYVMGWYRQAPGKERELVAAISGSGASTYYADSVKGRFTISRDNAKNTVFLQMNSLKPEDTAVYYCAADKPGIVSRFDYWGQGTQVTVSS	low polyreactivity
QVQLVESGGGLVQAGGSLRLSCAASGRIFAHYAMGWYRPAPGKERELVAAISSGGSTYYADSVKGRFTISRDNAKNTVYLQMKSLKPEDTAVYYCNKRPVRRKYDYWGQGTQVTVSS	low polyreactivity
